Three molecules from article PMC5802837, “Lymphocyte-specific protein 1 regulates mechanosensory oscillation of podosomes and actin isoform-based actomyosin symmetry breaking” (Nature Communications, 2018) can be followed below.

What all share (test): co-IP; anti-GFP immunoprecipitation (µMACS anti-GFP Microbeads) from lysates of macrophages expressing GFP-fused constructs (500 mM NaCl, 2% Triton X-100, 50 mM Tris-HCl pH 8.0), washes with RIPA and high-salt RIPA; GFP alone as control; western blot of endogenous partners, densitometry
Assay [1] has as its target supervillin construct SV1-830-GFP (UniProt O46385).
The target of assay [2] is GFP-fused full length LSP1 (human) (UniProt P33241).
Assay [3] addresses T1, supervillin construct SV1-830-GFP (UniProt O46385-2 1-830).
T1 construct: supervillin, N-terminal region, residues 1-830; as far as recalled the Luna laboratory constructs are bovine supervillin; also called GFP-SV1-830; GFP-supervillin 1-830; source: primary human macrophages, transfected, in lysate
The settings on record: partners not purified.

Take “Ser19 phosphorylated myosin light chain (pMLC), endogenous (from UniProt P24844 1-172) (natural protein)”: the coprecipitated amount relative to LSP1-GFP in assay [1] came out at 9 fold.

On to “α-cardiac actin, endogenous (from UniProt P68032 1-377) (natural protein)”, for which the coprecipitated α-cardiac actin relative to SV1-830-GFP in assay [2] came to 0.33 fold.

B1: myosin IIA, endogenous (natural protein, UniProt P35579 1-1960, looked up)
chain: MAQQAADKYLYVDKNFINNPLAQADWAAKKLVWVPSDKSGFEPASLKEEVGEEAIVELVENGKKVKVNKDDIQKMNPPKFSKVEDMAELTCLNEASVLHNLKERYYSGLIYTYSGLFCVVINPYKNLPIYSEEIVEMYKGKKRHEMPPHIYAITDTAYRSMMQDREDQSILCTGESGAGKTENTKKVIQYLAYVASSHKSKKDQGELERQLLQANPILEAFGNAKTVKNDNSSRFGKFIRINFDVNGYIVGANIETYLLEKSRAIRQAKEERTFHIFYYLLSGAGEHLKTDLLLEPYNKYRFLSNGHVTIPGQQDKDMFQETMEAMRIMGIPEEEQMGLLRVISGVLQLGNIVFKKERNTDQASMPDNTAAQKVSHLLGINVTDFTRGILTPRIKVGRDYVQKAQTKEQADFAIEALAKATYERMFRWLVLRINKALDKTKRQGASFIGILDIAGFEIFDLNSFEQLCINYTNEKLQQLFNHTMFILEQEEYQREGIEWNFIDFGLDLQPCIDLIEKPAGPPGILALLDEECWFPKATDKSFVEKVMQEQGTHPKFQKPKQLKDKADFCIIHYAGKVDYKADEWLMKNMDPLNDNIATLLHQSSDKFVSELWKDVDRIIGLDQVAGMSETALPGAFKTRKGMFRTVGQLYKEQLAKLMATLRNTNPNFVRCIIPNHEKKAGKLDPHLVLDQLRCNGVLEGIRICRQGFPNRVVFQEFRQRYEILTPNSIPKGFMDGKQACVLMIKALELDSNLYRIGQSKVFFRAGVLAHLEEERDLKITDVIIGFQACCRGYLARKAFAKRQQQLTAMKVLQRNCAAYLKLRNWQWWRLFTKVKPLLQVSRQEEEMMAKEEELVKVREKQLAAENRLTEMETLQSQLMAEKLQLQEQLQAETELCAEAEELRARLTAKKQELEEICHDLEARVEEEEERCQHLQAEKKKMQQNIQELEEQLEEEESARQKLQLEKVTTEAKLKKLEEEQIILEDQNCKLAKEKKLLEDRIAEFTTNLTEEEEKSKSLAKLKNKHEAMITDLEERLRREEKQRQELEKTRRKLEGDSTDLSDQIAELQAQIAELKMQLAKKEEELQAALARVEEEAAQKNMALKKIRELESQISELQEDLESERASRNKAEKQKRDLGEELEALKTELEDTLDSTAAQQELRSKREQEVNILKKTLEEEAKTHEAQIQEMRQKHSQAVEELAEQLEQTKRVKANLEKAKQTLENERGELANEVKVLLQGKGDSEHKRKKVEAQLQELQVKFNEGERVRTELADKVTKLQVELDNVTGLLSQSDSKSSKLTKDFSALESQLQDTQELLQEENRQKLSLSTKLKQVEDEKNSFREQLEEEEEAKHNLEKQIATLHAQVADMKKKMEDSVGCLETAEEVKRKLQKDLEGLSQRHEEKVAAYDKLEKTKTRLQQELDDLLVDLDHQRQSACNLEKKQKKFDQLLAEEKTISAKYAEERDRAEAEAREKETKALSLARALEEAMEQKAELERLNKQFRTEMEDLMSSKDDVGKSVHELEKSKRALEQQVEEMKTQLEELEDELQATEDAKLRLEVNLQAMKAQFERDLQGRDEQSEEKKKQLVRQVREMEAELEDERKQRSMAVAARKKLEMDLKDLEAHIDSANKNRDEAIKQLRKLQAQMKDCMRELDDTRASREEILAQAKENEKKLKSMEAEMIQLQEELAAAERAKRQAQQERDELADEIANSSGKGALALEEKRRLEARIAQLEEELEEEQGNTELINDRLKKANLQIDQINTDLNLERSHAQKNENARQQLERQNKELKVKLQEMEGTVKSKYKASITALEAKIAQLEEQLDNETKERQAACKQVRRTEKKLKDVLLQVDDERRNAEQYKDQADKASTRLKQLKRQLEEAEEEAQRANASRRKLQRELEDATETADAMNREVSSLKNKLRRGDLPFVVPRRMARKGAGDGSDEEVDGKADGAEAKPAE
notes: non-muscle myosin IIA heavy chain, human, precipitated and detected with anti-myosin IIA antibodies; also called non-muscle myosin IIA; source: endogenous, primary human macrophages (lysate or fixed cells)
As for B1, the “coprecipitated amount relative to LSP1-GFP” value in assay [3] was determined as 1.6 fold.
